Measured values reported in patent US20200062829A1 (PANASONIC INTELLECTUAL PROPERTY MANAGEMENT, published 2020).

B1: VHH antibody consisting of the amino acid sequence represented by SEQ ID NO: 67 (monomer antibody; includes the structural domain SEQ ID NO: 39) (VHH)
VHH: QLQLVESGGGLVQAGGSLRLSCVASGFPFASSAMAWFRQAPGKEREFVASISYRGITTYYAQPVKGRFTMSRDNAKNTVYLQMNSLKPEDTAVYYCYAKSIWGNAYWGQGTQVTVSP
notes: also called Monomer Antibody 67
B2: Antibody bound to the protein represented by SEQ ID NO: 102 (N to C: protein molecule SEQ ID NO: 44 - linker - structural domain SEQ ID NO: 39) (VHH)
chain: QVQLVESGGGLVQAGKSLRLSCTASGSIPSIGVMGWHRQAPGKQRELVATISQGGHINYFESVKGRFTISRDNAKNTVYLQMNSLKPEDTGVYYCNAFWLPLRLNDYWGQGTQVTVSSGGGGSGGGASGGGGSQLQLVESGGGLVQAGGSLRLSCVASGFPFASSAMAWFRQAPGKEREFVASISYRGITTYYAQPVKGRFTMSRDNAKNTVYLQMNSLKPEDTAVYYCYAKSIWGNAYWGQGTQVTVSPEPKTPKPQSASAA
notes: One chain; Made in E. coli; tags not described
B3: Antibody bound to the protein represented by SEQ ID NO: 100 (structural domain SEQ ID NO: 38 - linker - protein molecule SEQ ID NO: 44) (VHH)
chain: QVQLVESGGGVVQTGGSLRLSCAASGSTFSIGAMGWYRQAPGKQRELVATVNRASRTIYADSVRGRFTISRDNAKNLVYLQMNNLKPEDTAVYYCNVIATSASGRGVTSTSWGQGSQVTVSSGGGGSGGGASGGGGSQVQLVESGGGLVQAGKSLRLSCTASGSIPSIGVMGWHRQAPGKQRELVATISQGGHINYFESVKGRFTISRDNAKNTVYLQMNSLKPEDTGVYYCNAFWLPLRLNDYWGQGTQVTVSSEPKTPKPQSASAA
notes: tags not described

Molecular target: T1, VLP noro antigen derived from the norovirus GII/4, composed by associating 90 dimers of VP1 each including … (norovirus GII/4, UniProt P54635 1-539)
T1 construct: Virus-like particle of 90 VP1 dimers (180 copies); also called solid phase VLP
T1 chain: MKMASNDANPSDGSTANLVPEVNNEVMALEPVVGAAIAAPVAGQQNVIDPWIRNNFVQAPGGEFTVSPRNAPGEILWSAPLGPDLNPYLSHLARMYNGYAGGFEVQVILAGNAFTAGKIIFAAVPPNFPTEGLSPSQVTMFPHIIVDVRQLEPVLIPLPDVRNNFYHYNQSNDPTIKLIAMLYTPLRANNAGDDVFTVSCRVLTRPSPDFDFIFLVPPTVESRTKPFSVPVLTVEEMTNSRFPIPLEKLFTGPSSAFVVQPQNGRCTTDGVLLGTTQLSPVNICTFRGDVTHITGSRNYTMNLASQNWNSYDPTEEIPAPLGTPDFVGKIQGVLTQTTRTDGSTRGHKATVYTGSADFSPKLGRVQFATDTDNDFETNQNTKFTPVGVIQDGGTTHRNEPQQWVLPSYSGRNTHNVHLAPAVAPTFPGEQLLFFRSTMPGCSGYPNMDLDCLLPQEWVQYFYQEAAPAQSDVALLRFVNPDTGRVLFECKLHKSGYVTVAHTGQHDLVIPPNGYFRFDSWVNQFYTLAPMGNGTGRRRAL
Test: SPR (T200, CM3), VLP noro antigen immobilised, antibody as analyte

Binder | koff [s⁻¹] | Kd [nM] | kon [M⁻¹ s⁻¹]
B1 | 0.0194 | – | –
B2 | 0.0109 | 10.2 | 1.07e+06
B3 | 0.00698 | 2.38 | 2.93e+06
